{"source": "patent US20040171050A1", "about": "(PHARMACIA AND UPJOHN, published 2004)", "molecular_target": "the molecule itself", "experiment": "gel filtration (Superose 200); dynamic light scattering with MgCl2 also gave a monodisperse, dimeric sample; homodimer self-association"}
{"protein": "recombinant S. aureus thymidylate kinase (with polyhistidine [his6] sequence tag) (enzyme, Expressed in E. coli with a His6 tag; The crystals used for the structure were of the selenomethionine analogue (methionines replaced by selenomethionine); Gel filtration and light scattering appear to have used the native protein; also called S. aureus TMK; T. kinase) MGSAFITFEGPEGSGKTTVINEVYHRLVKDYDVIMTREPGGVPTGEEIRKIVLEGNDMDIRTEAMLFAASRREHLVLKVIPALKEGKVVLCDRYIDSSLAYQGYARGIGVEEVRALNEFAINGLYPDLTIYLNVSAEVGRERIIKNSRDQNRLDQEDLKFHEKVIEGYQEIIHNESQRFKSVNADQPLENVVEDTYQTIIKYLEKIRSHHHHHH", "values": [{"measurement": "binding result", "result": "binds"}]}
